In US20260242419A1, “A CYCLIC PEPTIDE FOR TRAPPING INTERLEUKIN-1 BETA” (Merck Sharp & Dohme LLC, priority 2023, published 2026):
Starred links: 1 amine or outer side, 2 acyl side, 3 side chain; linkers in the order of their positions; H or OH if unused. Non-standard residues stand in square brackets, D forms with d. PyrimAla4Ph4CO2H = 4-[5-[(2S)-2-amino-2-carboxy-ethyl]pyrimidin-2-yl]benzoic acid, O=C([C@H](Cc1cnc(-c2ccc(C(=O)[*:3])cc2)nc1)N[*:1])[*:2]; Phe(4-(5-CO2H-2-pyrimidyl)) = N[C@@H](Cc1ccc(-c2ncc(C(=O)O)cn2)cc1)C(=O)O; Phe(4-(4-Ac-piperazinyl)) = CC(=O)N1CCN(c2ccc(C[C@H](N)C(=O)O)cc2)CC1; dPro(4R-(4-pyridylmethyl)) = O=C(O)[C@H]1C[C@@H](Cc2ccncc2)CN1; Trp(βS-Me,4-F) = C[C@@H](c1c[nH]c2cccc(F)c12)[C@H](N)C(=O)O; Bip(4'-COOH) = N[C@@H](Cc1ccc(-c2ccc(C(=O)O)cc2)cc1)C(=O)O; Ala(1-bicyclo(1.1.1)pentyl) = N[C@@H](CC12CC(C1)C2)C(=O)O; dPro(4R-Bzl(4-F)) = O=C(O)[C@H]1C[C@@H](Cc2ccc(F)cc2)CN1; Ala(pyrimidin-5-yl) = N[C@@H](Cc1cncnc1)C(=O)O; Phe(4-COOH) = N[C@@H](Cc1ccc(C(=O)O)cc1)C(=O)O; Pro(cis-4-F) = O=C(O)[C@@H]1C[C@H](F)CN1; 4Pal = N[C@@H](Cc1ccncc1)C(=O)O; Dab = NCC[C@H](N)C(=O)O; Aib = CC(C)(N)C(=O)O

B1: SEQ ID NO: 91 (peptide)
peptide: cyclo([PyrimAla4Ph4CO2H][4Pal][Phe(4-COOH)]G[Pro(cis-4-F)][Trp(βS-Me,4-F)][Aib]EW[Aib][Ala(pyrimidin-5-yl)]Q[Dab]G[dPro(4R-Bzl(4-F))])
SMILES: C[C@@H](c1c[nH]c2cccc(F)c12)[C@@H]1NC(=O)[C@@H]2C[C@H](F)CN2C(=O)CNC(=O)[C@H](Cc2ccc(C(=O)O)cc2)NC(=O)[C@H](Cc2ccncc2)NC(=O)[C@H](Cc2cnc(-c3ccc(C(=O)O)cc3)nc2)NC(=O)[C@H]2C[C@@H](Cc3ccc(F)cc3)CN2C(=O)CNC(=O)[C@H](CCN)NC(=O)[C@H](CCC(N)=O)NC(=O)[C@H](Cc2cncnc2)NC(=O)C(C)(C)NC(=O)[C@H](Cc2c[nH]c3ccccc23)NC(=O)[C@H](CCC(=O)O)NC(=O)C(C)(C)NC1=O
B2: SEQ ID NO: 9 (peptide)
peptide: cyclo([Bip(4'-COOH)][4Pal][Phe(4-COOH)]G[Pro(cis-4-F)][Trp(βS-Me,4-F)][Aib]EW[Aib][Ala(pyrimidin-5-yl)]QKG[dPro(4R-Bzl(4-F))])
SMILES: C[C@@H](c1c[nH]c2cccc(F)c12)[C@@H]1NC(=O)[C@@H]2C[C@H](F)CN2C(=O)CNC(=O)[C@H](Cc2ccc(C(=O)O)cc2)NC(=O)[C@H](Cc2ccncc2)NC(=O)[C@H](Cc2ccc(-c3ccc(C(=O)O)cc3)cc2)NC(=O)[C@H]2C[C@@H](Cc3ccc(F)cc3)CN2C(=O)CNC(=O)[C@H](CCCCN)NC(=O)[C@H](CCC(N)=O)NC(=O)[C@H](Cc2cncnc2)NC(=O)C(C)(C)NC(=O)[C@H](Cc2c[nH]c3ccccc23)NC(=O)[C@H](CCC(=O)O)NC(=O)C(C)(C)NC1=O
B3: SEQ ID NO: 88 (peptide)
peptide: cyclo([Phe(4-(5-CO2H-2-pyrimidyl))][Ala(1-bicyclo(1.1.1)pentyl)][Phe(4-COOH)]G[Pro(cis-4-F)][Trp(βS-Me,4-F)][Aib]AW[Aib][4Pal]Q[Dab]G[dPro(4R-(4-pyridylmethyl))])
SMILES: C[C@@H]1NC(=O)C(C)(C)NC(=O)[C@H]([C@@H](C)c2c[nH]c3cccc(F)c23)NC(=O)[C@@H]2C[C@H](F)CN2C(=O)CNC(=O)[C@H](Cc2ccc(C(=O)O)cc2)NC(=O)[C@H](CC23CC(C2)C3)NC(=O)[C@H](Cc2ccc(-c3ncc(C(=O)O)cn3)cc2)NC(=O)[C@H]2C[C@@H](Cc3ccncc3)CN2C(=O)CNC(=O)[C@H](CCN)NC(=O)[C@H](CCC(N)=O)NC(=O)[C@H](Cc2ccncc2)NC(=O)C(C)(C)NC(=O)[C@H](Cc2c[nH]c3ccccc23)NC1=O
B4: SEQ ID NO: 89 (peptide)
peptide: cyclo([Phe(4-(5-CO2H-2-pyrimidyl))][Ala(1-bicyclo(1.1.1)pentyl)][Phe(4-COOH)]G[Pro(cis-4-F)][Trp(βS-Me,4-F)][Aib]SW[Aib][4Pal]Q[Dab]G[dPro(4R-(4-pyridylmethyl))])
SMILES: C[C@@H](c1c[nH]c2cccc(F)c12)[C@@H]1NC(=O)[C@@H]2C[C@H](F)CN2C(=O)CNC(=O)[C@H](Cc2ccc(C(=O)O)cc2)NC(=O)[C@H](CC23CC(C2)C3)NC(=O)[C@H](Cc2ccc(-c3ncc(C(=O)O)cn3)cc2)NC(=O)[C@H]2C[C@@H](Cc3ccncc3)CN2C(=O)CNC(=O)[C@H](CCN)NC(=O)[C@H](CCC(N)=O)NC(=O)[C@H](Cc2ccncc2)NC(=O)C(C)(C)NC(=O)[C@H](Cc2c[nH]c3ccccc23)NC(=O)[C@H](CO)NC(=O)C(C)(C)NC1=O

The binders below were run against Recombinant human IL-1β (BioLegend 579404) (human, UniProt P01584 117-269) (assay: cell-based or functional assay).

Binder	MRC5 IC50 [nM]
B1	0.054
B2	0.028
cyclo([Phe(4-(4-Ac-piperazinyl))][Ala(1-bicyclo(1.1.1)pentyl)][Phe(4-COOH)]G[Pro(cis-4-F)][Trp(βS-Me,4-F)][Aib]EW[Aib][4Pal]Q[Dab]G[dPro(4R-Bzl(4-F))]) [SEQ ID NO: 90]	0.064
B3	0.083
B4	0.045
